Results on 71 molecules are retold here after patent US20250011363A1, “OPTIMIZED SHORTENED PEPTIDE THAT BINDS TO ACETYLCHOLINE RECEPTOR, AND USE THEREOF” (SKINMED CO., LTD., priority 2021, published 2025).

The experiment concerns the target acetylcholine receptor. In words: SPR, AchR immobilised on CM5 chip, peptide 10 uM. A general note: SPR reads the build-up and loss of mass on a sensor chip optically.

B1: 6mer-2-698 (peptide)
peptide: KCEDKK
Consider B1, for which the Binding affinity (RU) is 27 RU.

B2: 6mer-2-701 (peptide)
peptide: KTWAKR
Consider B2, for which the Binding affinity (RU) turned out to be 23 RU.

B3: 6mer-2-680 (peptide)
peptide: KNHGKR
B3 yielded a Binding affinity (RU) of 15 RU.

B4: 6mer-2-707 (peptide)
peptide: RTWKRK
For the molecule B4, the Binding affinity (RU) worked out at 21 RU.

B5: 6mer-2-719 (peptide)
peptide: KIKPRR
The molecule B5 registered a Binding affinity (RU) of 29 RU.

B6: 6mer-2-715 (peptide)
peptide: RATHRK
For B6, the Binding affinity (RU) was determined as 32 RU.

B7: 6mer-2-721 (peptide)
peptide: RHSKKK
B7 came in with a Binding affinity (RU) of 26 RU.

B8: 6mer-2-697 (peptide)
peptide: KCAVKK
As for B8, the Binding affinity (RU) amounted to 19 RU.

B9: 6mer-2-688 (peptide)
peptide: RPMFRK
In the case of B9, the Binding affinity (RU) came out at 13 RU.

B10: 6mer-2-690 (peptide)
peptide: KFTMRK
B10 showed a Binding affinity (RU) of 13 RU.

B11: 6mer-2-695 (peptide)
peptide: KCWWRR
On to B11, for which the Binding affinity (RU) was determined as 28 RU.

B12: 6mer-2-687 (peptide)
peptide: KADGRK
With B12, the Binding affinity (RU) came to 16 RU.

B13: 6mer-2-724 (peptide)
peptide: KYTMKK
Molecule B13 displayed a Binding affinity (RU) of 24 RU.

B14: 6mer-2-728 (peptide)
peptide: RMTMKK
For B14, the Binding affinity (RU) is 23 RU.

B15: 6mer-2-682 (peptide)
peptide: RNMERR
The molecule B15 came in with a Binding affinity (RU) of 33 RU.

B16: 6mer-2-734 (peptide)
peptide: KHCHRR
For the molecule B16, the Binding affinity (RU) was 17 RU.

B17: 6mer-2-694 (peptide)
peptide: KDSIRK
In turn, B17 registered a Binding affinity (RU) of 22 RU.

B18: 6mer-2-692 (peptide)
peptide: KYTNRR
As to B18, the Binding affinity (RU) was 29 RU.

B19: 6mer-2-738 (peptide)
peptide: KPWFKK
B19: the Binding affinity (RU) came out at 29 RU.

B20: 6mer-2-731 (peptide)
peptide: KASWKK
In turn, B20 displayed a Binding affinity (RU) of 19 RU.

B21: 6mer-2-708 (peptide)
peptide: RAWVKK
Regarding B21, the Binding affinity (RU) was 29 RU.

B22: 6mer-2-685 (peptide)
peptide: KFHNRK
In turn, B22 showed a Binding affinity (RU) of 15 RU.

B23: 6mer-2-711 (peptide)
peptide: KECGRR
In turn, B23 yielded a Binding affinity (RU) of 29 RU.

B24: 6mer-2-681 (peptide)
peptide: RDTWRR
Regarding B24, the Binding affinity (RU) was 33 RU.

B25: 6mer-2-704 (peptide)
peptide: KDWHRK
For the molecule B25, the Binding affinity (RU) stood at 20 RU.

B26: 6mer-2-726 (peptide)
peptide: KHHKKK
B26 returned a Binding affinity (RU) of 25 RU.

B27: 6mer-2-743 (peptide)
peptide: KHTMKR
As to B27, the Binding affinity (RU) turned out to be 18 RU.

B28: 6mer-2-716 (peptide)
peptide: RTWKKR
Molecule B28 displayed a Binding affinity (RU) of 18 RU.

B29: 6mer-2-677 (peptide)
peptide: RENWKK
In the case of B29, the Binding affinity (RU) was 28 RU.

B30: 6mer-2-742 (peptide)
peptide: KNNWRR
The molecule B30 displayed a Binding affinity (RU) of 32 RU.

B31: 6mer-2-739 (peptide)
peptide: RIHAKK
In turn, B31 yielded a Binding affinity (RU) of 17 RU.

B32: 6mer-2-703 (peptide)
peptide: RTMHKR
Molecule B32 returned a Binding affinity (RU) of 14 RU.

B33: 6mer-2-706 (peptide)
peptide: KFTDRK
B33 came in with a Binding affinity (RU) of 23 RU.

B34: 6mer-2-746 (peptide)
peptide: RIKVRK
In turn, B34 gave a Binding affinity (RU) of 26 RU.

B35: 6mer-2-700 (peptide)
peptide: RPWHKK
The molecule B35 gave a Binding affinity (RU) of 15 RU.

B36: 6mer-2-733 (peptide)
peptide: RTPARK
As for B36, the Binding affinity (RU) was found to be 29 RU.

B37: 6mer-2-693 (peptide)
peptide: KNTIRR
The molecule B37 had a Binding affinity (RU) of 16 RU.

B38: 6mer-2-718 (peptide)
peptide: KYTFKR
B38 showed a Binding affinity (RU) of 12 RU.

B39: 6mer-2-741 (peptide)
peptide: KNEKKR
Consider B39, for which the Binding affinity (RU) came out at 30 RU.

B40: 6mer-2-712 (peptide)
peptide: KIPHRR
The molecule B40 returned a Binding affinity (RU) of 29 RU.

B41: 6mer-2-747 (peptide)
peptide: RANFRR
B41 gave a Binding affinity (RU) of 29 RU.

B42: 6mer-2-702 (peptide)
peptide: KEMIKR
As to B42, the Binding affinity (RU) is 18 RU.

B43: 6mer-2-740 (peptide)
peptide: KIDIRR
Consider B43, for which the Binding affinity (RU) was 12 RU.

B44: 6mer-2-720 (peptide)
peptide: RATNRK
For B44, the Binding affinity (RU) was 29 RU.

B45: 6mer-2-714 (peptide)
peptide: KIDVRK
Consider B45, for which the Binding affinity (RU) amounted to 30 RU.

B46: 6mer-2-725 (peptide)
peptide: KAHMKK
B46 showed a Binding affinity (RU) of 25 RU.

B47: 6mer-2-744 (peptide)
peptide: KDHPRK
As for B47, the Binding affinity (RU) is 19 RU.

B48: 6mer-2-745 (peptide)
peptide: KNTERR
Molecule B48 gave a Binding affinity (RU) of 17 RU.

B49: 6mer-2-705 (peptide)
peptide: RENFKK
Molecule B49 registered a Binding affinity (RU) of 11 RU.

B50: 6mer-2-683 (peptide)
peptide: KTEIRK
For the molecule B50, the Binding affinity (RU) came out at 33 RU.

B51: 6mer-2-723 (peptide)
peptide: KEDMKR
In turn, B51 registered a Binding affinity (RU) of 23 RU.

B52: 6mer-2-689 (peptide)
peptide: RDKERR
Regarding B52, the Binding affinity (RU) came to 24 RU.

B53: 6mer-2-713 (peptide)
peptide: RASWRR
Consider B53, for which the Binding affinity (RU) was 24 RU.

B54: 6mer-2-678 (peptide)
peptide: KEWWRR
As to B54, the Binding affinity (RU) is 32 RU.

B55: 6mer-2-684 (peptide)
peptide: RYTMKK
With B55, the Binding affinity (RU) stood at 14 RU.

B56: 6mer-2-691 (peptide)
peptide: RHKMRK
Turning to B56, the Binding affinity (RU) came to 15 RU.

B57: 6mer-2-730 (peptide)
peptide: RNTHKR
The molecule B57 registered a Binding affinity (RU) of 26 RU.

B58: 6mer-2-736 (peptide)
peptide: KNNHKK
B58 came in with a Binding affinity (RU) of 29 RU.

B59: 6mer-2-696 (peptide)
peptide: KFTKKK
Molecule B59 came in with a Binding affinity (RU) of 20 RU.

B60: 6mer-2-732 (peptide)
peptide: KPTWRK
In turn, B60 returned a Binding affinity (RU) of 24 RU.

B61: 6mer-2-710 (peptide)
peptide: RNKKKK
In the case of B61, the Binding affinity (RU) was 14 RU.

B62: 6mer-2-679 (peptide)
peptide: RYSAKK
Molecule B62 had a Binding affinity (RU) of 20 RU.

B63: 6mer-2-722 (peptide)
peptide: RNEHRR
Regarding B63, the Binding affinity (RU) turned out to be 21 RU.

B64: 6mer-2-717 (peptide)
peptide: KCPGKR
Consider B64, for which the Binding affinity (RU) stood at 15 RU.

B65: 6mer-2-699 (peptide)
peptide: KNAGKR
As to B65, the Binding affinity (RU) came to 23 RU.

B66: 6mer-2-686 (peptide)
peptide: KTWEKK
B66: the Binding affinity (RU) amounted to 21 RU.

B67: 6mer-2-729 (peptide)
peptide: RCPDKR
B67 showed a Binding affinity (RU) of 30 RU.

B68: 6mer-2-727 (peptide)
peptide: RDMIKR
In the case of B68, the Binding affinity (RU) is 11 RU.

B69: 6mer-2-735 (peptide)
peptide: KMNAKK
For B69, the Binding affinity (RU) was 21 RU.

B70: 6mer-2-737 (peptide)
peptide: KDSVRR
B70 showed a Binding affinity (RU) of 19 RU.

B71: 6mer-2-709 (peptide)
peptide: RIWPKR
Turning to B71, the Binding affinity (RU) stood at 31 RU.
